{
  "source": "patent US6514734",
  "key": {"bovine thrombin (bovine)": {"target": "bovine thrombin (bovine) (UniProt P00735)", "test": "cell-based or functional assay"}, "[1]": {"target": "biotin derivatized horseradish peroxidase (horseradish) (UniProt P00433)", "sequence (P00433 31-338)": "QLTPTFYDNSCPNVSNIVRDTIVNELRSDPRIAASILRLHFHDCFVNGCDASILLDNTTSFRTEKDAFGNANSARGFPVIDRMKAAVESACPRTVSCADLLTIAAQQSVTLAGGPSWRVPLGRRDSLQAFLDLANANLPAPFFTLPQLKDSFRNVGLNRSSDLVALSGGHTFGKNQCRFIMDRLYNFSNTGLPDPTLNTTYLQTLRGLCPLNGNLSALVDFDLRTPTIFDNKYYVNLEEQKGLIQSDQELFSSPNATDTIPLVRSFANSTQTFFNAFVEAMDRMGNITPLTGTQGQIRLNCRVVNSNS", "test": "biotin-HRP bound to glass rods, adsorbed against photoimmobilized streptavidin polymer"}, "[2]": {"target": "biotin derivatized horseradish peroxidase (horseradish) (UniProt P00433)", "test": "glass rods with photoimmobilized streptavidin polymer, biotin-HRP at 9 µg/ml 1 h, washed, TMB peroxidase substrate; average of 3"}, "[3]": {"target": "biotin derivatized horseradish peroxidase (horseradish) (UniProt P00433)", "test": "glass rods with adsorbed (nonilluminated) streptavidin polymer, biotin-HRP at 9 µg/ml 1 h, washed, TMB peroxidase substrate; average of 3"}, "[4]": {"target": "tritium labeled human thrombin (human) (UniProt P00734)", "test": "3H-thrombin at 2 µg/ml, 1 h, on PE coated with photoimmobilized hirudin polymer (25 µg/cm^2 added); scintillation counting"}, "[5]": {"target": "tritium labeled human thrombin (human) (UniProt P00734)", "test": "3H-thrombin binding, PE coated with 25 µg/cm^2 hirudin polymer against uncoated PE"}, "[6]": {"target": "tritium labeled human thrombin (human) (UniProt P00734)", "test": "3H-thrombin at 2 µg/ml, 1 h, on PU coated with photoimmobilized hirudin polymer (1.0 µg/cm^2 added); scintillation counting"}, "[7]": {"target": "tritium labeled human thrombin (human) (UniProt P00734)", "test": "3H-thrombin binding, PU coated with 25 µg/cm^2 hirudin polymer against uncoated PU"}, "[8]": {"target": "tritium labeled human thrombin (human) (UniProt P00734)", "test": "3H-thrombin at 2 µg/ml, 1 h, on PE coated with photoimmobilized hirudin polymer (1.0 µg/cm^2 added); scintillation counting"}, "[9]": {"target": "tritium labeled human thrombin (human) (UniProt P00734)", "test": "3H-thrombin at 2 µg/ml, 1 h, on PU coated with photoimmobilized hirudin polymer (25 µg/cm^2 added); scintillation counting"}, "[10]": {"target": "tritium labeled human thrombin (human) (UniProt P00734)", "test": "3H-thrombin at 2 µg/ml, 1 h, on SR coated with photoimmobilized hirudin polymer (1.0 µg/cm^2 added); scintillation counting"}, "[11]": {"target": "tritium labeled human thrombin (human) (UniProt P00734)", "test": "3H-thrombin at 2 µg/ml, 1 h, on PU coated with photoimmobilized hirudin polymer (5.0 µg/cm^2 added); scintillation counting"}, "[12]": {"target": "tritium labeled human thrombin (human) (UniProt P00734)", "test": "3H-thrombin at 2 µg/ml, 1 h, on PE coated with photoimmobilized hirudin polymer (5.0 µg/cm^2 added); scintillation counting"}, "[13]": {"target": "tritium labeled human thrombin (human) (UniProt P00734)", "test": "3H-thrombin at 2 µg/ml, 1 h, on SR coated with photoimmobilized hirudin polymer (5.0 µg/cm^2 added); scintillation counting"}, "glucose oxidase [14]": {"target": "glucose oxidase", "test": "glucose oxidase capture on discs with IgG polymer, illuminated against nonilluminated"}, "glucose oxidase [15]": {"target": "glucose oxidase", "test": "polyester discs with IgG polymer, illuminated, washed; glucose oxidase at 0.1 mg/ml 1 h, washed; bound glucose oxidase read with glucose/HRP/TMB; n=5, SEM 0.059"}, "glucose oxidase [16]": {"target": "glucose oxidase", "test": "polyester discs with IgG polymer, not illuminated, washed; glucose oxidase at 0.1 mg/ml 1 h, washed; bound glucose oxidase read with glucose/HRP/TMB; n=5, SEM 0.021"}, "[17]": {"tested_on": "hirudin polymer (photoreactive polyacrylamide containing hirudin ligands)"}},
  "data": [
    {"substance": "recombinant hirudin", "values": [
      {"measurement": "specific activity (antithrombin units per mg of hirudin); remaining thrombin activity on chromogenic substrate Chromozym TH", "setting": "bovine thrombin (bovine)", "value": 11700, "unit": "ATU/mg"}
    ]},
    {"substance": "streptavidin polymer (photoreactive polyacrylamide containing streptavidin ligands) (from UniProt P22629 37-163)", "values": [
      {"measurement": "fold less peroxidase activity than covalent streptavidin polymer", "setting": "[1]", "value": 3.5, "unit": "fold"},
      {"measurement": "Absorbance of Biotin-HRP", "setting": "[2]", "value": 1, "unit": "absorbance"},
      {"measurement": "Absorbance of Biotin-HRP", "setting": "[3]", "value": 0.285, "unit": "absorbance"}
    ]},
    {"substance": "hirudin polymer (photoreactive polyacrylamide containing hirudin ligands)", "values": [
      {"measurement": "Bound thrombin", "setting": "[4]", "value": 0.2, "unit": "µg/cm^2"},
      {"measurement": "fold greater thrombin binding than uncoated biomaterial", "setting": "[5]", "value": 200, "unit": "fold"},
      {"measurement": "Bound thrombin", "setting": "[6]", "value": 0.028, "unit": "µg/cm^2"},
      {"measurement": "fold greater thrombin binding than uncoated biomaterial", "setting": "[7]", "value": 23, "unit": "fold"},
      {"measurement": "specific activity (antithrombin units per mg of hirudin); remaining thrombin activity on chromogenic substrate Chromozym TH", "setting": "bovine thrombin (bovine)", "value": 10200, "unit": "ATU/mg"},
      {"measurement": "Bound thrombin", "setting": "[8]", "value": 0.02, "unit": "µg/cm^2"},
      {"measurement": "Bound thrombin", "setting": "[9]", "value": 0.28, "unit": "µg/cm^2"},
      {"measurement": "Bound thrombin", "setting": "[10]", "value": 0.004, "unit": "µg/cm^2"},
      {"measurement": "Bound thrombin", "setting": "[11]", "value": 0.137, "unit": "µg/cm^2"},
      {"measurement": "Bound thrombin", "setting": "[12]", "value": 0.014, "unit": "µg/cm^2"},
      {"measurement": "Bound thrombin", "setting": "[13]", "value": 0.047, "unit": "µg/cm^2"}
    ]},
    {"substance": "IgG polymer (photoreactive polyacrylamide containing tritiated rabbit anti-glucose oxidase IgG ligands) (antibody)", "values": [
      {"measurement": "percent greater activity, illuminated against nonilluminated", "setting": "glucose oxidase [14]", "value": 61, "unit": "%"},
      {"measurement": "IgG Activity (A655)", "setting": "glucose oxidase [15]", "value": 1.08, "unit": "A655"},
      {"measurement": "IgG Activity (A655)", "setting": "glucose oxidase [16]", "value": 0.669, "unit": "A655"}
    ]},
    {"substance": "bovine thrombin", "values": [
      {"measurement": "decrease in antithrombin activity after incorporation of hirudin into the polymer", "setting": "[17]", "value": "only a 13% decrease in its activity"}
    ]}
  ]
}
